Biological target: the molecule itself
Assay: dynamic light scattering

B1: D48V-GLTP (human glycolipid transfer protein, D48V mutant) (natural protein, UniProt Q9NZD2 1-209, looked up)
chain: MALLAEHLLKPLPADKQIETGPFLEAVSHLPPFFDCLGSPVFTPIKAVISGNITKIKAVYDTNPAKFRTLQNILEVEKEMYGAEWPKVGATLALMWLKRGLRFIQVFLQSICDGERDENHPNLIRVNATKAYEMALKKYHGWIVQKIFQAALYAAPYKSDFLKALSKGQNVTEEECLEKIRLFLVNYTATIDVIYEMYTQMNAELNYKV
stoichiometry N: 2
